The values below come from patent US20080255046A1 (7TM PHARMA A S, published 2008).

Where no end group is shown, it is not given here. [ ]: non-standard residue; d: D form. Met(O) = CS(=O)CC[C@H](N)C(=O)O

The target in test [1] is T1, rhesus monkey Y2 receptor (rhesus monkey, UniProt Q9GK74 1-381).
T1 construct: whole, on cells; Transiently expressed in COS-7 cells together with the chimeric G protein Gqi5 for the potency assay; also called rhY2; rhesus monkey NPY-Receptor Y2
T1 sequence (looked up): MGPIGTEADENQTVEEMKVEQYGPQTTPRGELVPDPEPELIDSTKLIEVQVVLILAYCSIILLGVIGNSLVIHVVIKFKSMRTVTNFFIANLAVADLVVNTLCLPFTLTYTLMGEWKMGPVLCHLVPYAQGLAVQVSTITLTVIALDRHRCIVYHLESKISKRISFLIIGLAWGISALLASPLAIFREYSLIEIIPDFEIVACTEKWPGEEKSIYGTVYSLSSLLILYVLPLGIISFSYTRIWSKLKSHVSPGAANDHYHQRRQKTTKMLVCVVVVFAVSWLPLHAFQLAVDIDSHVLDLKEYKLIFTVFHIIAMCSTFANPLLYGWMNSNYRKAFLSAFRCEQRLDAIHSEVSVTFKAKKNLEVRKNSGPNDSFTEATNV
Put plainly: competition binding with 125I-PYY on CHO cells stably expressing rhesus monkey Y2. How it is done:
(§1) The stable transfected CHO cells are transferred to 48-well culture plates one day prior assay at a density of 2,500 cells per well aiming at 5-8% binding of the radioactive ligand. […] Binding assays are performed in 0.5 ml of a 50 mM Hepes buffer, pH 7.4, supplemented with 1 mM CaCl2, 5 mM MgCl2, and 0.1% (w/v) bovine serum albumin and 100 μg/ml bacitracin. Non-specific binding is determined as the binding in the presence of 1 μM of unlabeled human PYY. Cells are washed twice in 0.5 ml of ice-cold buffer and 0.5-1 ml of lysis buffer (8 M Urea, 2% NP40 in 3 M acetic acid) is added and the bound radioactivity is counted in a gamma counter. Determinations are made in triplicates. […] IC50 values were calculated using a standard pharmacological data handling software, Prism 3.0 (graphpad Sofware, San Diego, USA). Ki-values are calculated according the Cheng-Prusoff equation (Cheng Y, Prusoff W H., Biochem Pharmacol. 1973): Ki=[IC50/(1+[L]/Kd)], where Ki is the equilibrium inhibitory constant for the cold ligand, Kd is the equilibrium constant for the radiolabeled (hot) ligand and L is the concentration of the radiolabeled ligand used.

Test [2] addresses T1, rhesus monkey Y2 receptor. The test is described as follows: cell-based or functional assay.
The target of test [3] is rhesus monkey Y4 receptor (rhesus monkey). Put plainly: cell-based or functional assay.
For test [4], the target named is rhesus monkey Y1 receptor (rhesus monkey). The test is described as follows: cell-based or functional assay.
In test [5] the target is T2, rhesus monkey Y4 receptor (rhesus monkey).
T2 construct: whole, on cells; also called rhY4
Put plainly: competition binding on CHO cells expressing rhesus monkey Y4 (125I-PP), compared with Y2. How it is done: as §1

The target of test [6] is T3, rhesus monkey Y1 receptor (rhesus monkey).
T3 construct: whole, on cells; also called rhY1
Put plainly: competition binding on CHO cells expressing rhesus monkey Y1 (125I-PYY), compared with Y2. How it is done:
as §1
Protocol as for the Y2 affinity assay, except that CHO cells stably expressing rhesus monkey Y1 are used and cells are transferred to culture plates at a density of 23,000 cells per well.

One may read the Ki as the equilibrium dissociation constant of an inhibitor or competing ligand from its target.

B1: NPY (Neuropeptide Y), human sequence (peptide)
peptide: not shown
modifications: C-terminally amidated
B1 gave a Ki in test [1] of 0.11 nM. The “IP3 EC50 values at Y2” value in test [2] worked out at 0.6 nM.

B2: PYY (Peptide YY), human sequence (peptide)
peptide: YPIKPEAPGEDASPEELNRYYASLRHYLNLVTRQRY
modifications: C-terminally amidated
notes: also called PYY1-36; human PYY
B2: in test [1], the Ki was found to be 0.09 nM. In addition, in test [2], the “IP3 EC50 values at Y2” value turned out to be 0.18 nM.

B3: [Lys4,Leu17,Met-sulfoxide30,Gln34]hPP (peptide)
peptide: APLKPVYPGDNATPEQLAQYAADLRRYIN[Met(O)]LTRQRY-NH2
modifications: N-terminus assumed
SMILES: CC[C@H](C)[C@H](NC(=O)[C@H](Cc1ccc(O)cc1)NC(=O)[C@H](CCCNC(=N)N)NC(=O)[C@H](CCCNC(=N)N)NC(=O)[C@H](CC(C)C)NC(=O)[C@H](CC(=O)O)NC(=O)[C@H](C)NC(=O)[C@H](C)NC(=O)[C@H](Cc1ccc(O)cc1)NC(=O)[C@H](CCC(N)=O)NC(=O)[C@H](C)NC(=O)[C@H](CC(C)C)NC(=O)[C@H](CCC(N)=O)NC(=O)[C@H](CCC(=O)O)NC(=O)[C@@H]1CCCN1C(=O)[C@@H](NC(=O)[C@H](C)NC(=O)[C@H](CC(N)=O)NC(=O)[C@H](CC(=O)O)NC(=O)CNC(=O)[C@@H]1CCCN1C(=O)[C@H](Cc1ccc(O)cc1)NC(=O)[C@@H](NC(=O)[C@@H]1CCCN1C(=O)[C@H](CCCCN)NC(=O)[C@H](CC(C)C)NC(=O)[C@@H]1CCCN1C(=O)[C@H](C)N)C(C)C)[C@@H](C)O)C(=O)N[C@@H](CC(N)=O)C(=O)N[C@@H](CCS(C)=O)C(=O)N[C@@H](CC(C)C)C(=O)N[C@H](C(=O)N[C@@H](CCCNC(=N)N)C(=O)N[C@@H](CCC(N)=O)C(=O)N[C@@H](CCCNC(=N)N)C(=O)N[C@@H](Cc1ccc(O)cc1)C(N)=O)[C@@H](C)O
notes: Human PP with Lys at 4, Leu at 17, oxidised Met at 30 and Gln at 34; also called [Lys4, Leu17, Met(O)30, Gln34]-PP; [Lys4,Leu17,oxidised Met30,Gln34]hPP
As for B3, in test [3], the “fold selectivity in the potency assay (Y2 against Y4)” value (“fold selectivity … (Y2 against Y4)” below) was at least 20 fold. The “fold selectivity in the potency assay (Y2 against Y1)” value (“fold selectivity … (Y2 against Y1)” below) in test [4] was at least 100 fold. Also, the “fold selectivity (affinity at Y2 against Y4)” value in test [5] is at least 20 fold. Moreover, the “fold selectivity (affinity at Y2 against Y1)” value in test [6] is at least 100 fold. The same molecule gave a Ki in test [1] of 0.06 nM. In addition, the “IP3 EC50 values at Y2” value in test [2] came out at 0.5 nM.

B4: [Lys4,Leu17,Thr30,Gln34]hPP (peptide)
peptide: APLKPVYPGDNATPEQLAQYAADLRRYINTLTRQRY-NH2
notes: Human PP with Lys at 4, Leu at 17, Thr at 30 and Gln at 34; also called [Lys4, Leu17, Thr30, Gln34]-PP; peptide (ii)
For B4, the “fold selectivity … (Y2 against Y4)” value in test [3] was at least 20 fold. In test [4], the “fold selectivity … (Y2 against Y1)” value was at least 100 fold. Further, the “fold selectivity (affinity at Y2 against Y4)” value in test [5] is at least 20 fold. Also, in test [6], the “fold selectivity (affinity at Y2 against Y1)” value is at least 100 fold. The affinity in test [1] corresponds to a Ki of 0.47 nM. In test [2], the “IP3 EC50 values at Y2” value came out at 0.71 nM.

Turning to APLEPVYPGDNATPEQMAQYAADLRRYINMLTRPRY-NH2 [PP (Pancreatic Polypeptide), human sequence], in test [2], the “IP3 EC50 values at Y2 (nM)” value was above 1000 nM.

B5: [Lys4,Leu17,Ser30,Gln34]hPP (peptide)
peptide: APLKPVYPGDNATPEQLAQYAADLRRYINSLTRQRY-NH2
notes: also called [Lys4, Leu17, Ser30, Gln34]-PP; peptide (i)
As to B5, in test [3], the “fold selectivity … (Y2 against Y4)” value is at least 20 fold. Moreover, the “fold selectivity … (Y2 against Y1)” value in test [4] is at least 100 fold. The “fold selectivity (affinity at Y2 against Y4)” value in test [5] was at least 20 fold. Besides, the “fold selectivity (affinity at Y2 against Y1)” value in test [6] was at least 100 fold. The same molecule displayed a Ki in test [1] of 0.51 nM. The “IP3 EC50 values at Y2” value in test [2] is 0.67 nM.
